Source: patent publication US20160347808A1 (IMMATICS BIOTECHNOLOGIES, published 2016)

What follows are binders tested against T1, HLA-A*02:01 (peptide-receptive MHC class I monomer from UV-ligand exchange) (human) (assay: UV-exchange ELISA (anti-b2m); exchange yield grade: + >=10%, ++ >=20%, +++ >=50%, ++++ >=75%).
T1 construct: Monomers were captured on streptavidin-coated plates
Text: Candidate peptides for T cell based therapies according to the present invention were further tested for their MHC binding capacity (affinity). The individual peptide-MHC complexes were produced by UV-ligand exchange, where a UV-sensitive peptide is cleaved upon UV-irradiation, and exchanged with the peptide of interest as analyzed. Only peptide candidates that can effectively bind and stabilize the peptide-receptive MHC molecules prevent dissociation of the MHC complexes. To determine the yield of the exchange reaction, an ELISA was performed based on the detection of the light chain (β2m) of stabilized MHC complexes. The assay was performed as generally described in Rodenko et al. (Rodenko et al., 2006).
96 well MAXISorp plates (NUNC) were coated over night with 2 ug/ml streptavidin in PBS at room temperature, washed 4× and blocked for 1 h at 37° C. in 2% BSA containing blocking buffer. Refolded HLA-A*02:01/MLA-001 monomers served as standards, covering the range of 15-500 ng/ml. Peptide-MHC monomers of the UV-exchange reaction were diluted 100 fold in blocking buffer. Samples were incubated for 1 h at 37° C., washed four times, incubated with 2 ug/ml HRP conjugated anti-β2m for 1 h at 37° C., washed again and detected with TMB solution that is stopped with […]. Absorption was measured at 450 nm. Candidate peptides that show a high exchange yield (preferably higher than 50%, most preferred higher than 75%) are generally preferred for a generation and production of antibodies or fragments thereof, and/or T cell receptors or fragments thereof, as they show sufficient avidity to the MHC molecules and prevent dissociation of the MHC complexes.

Binder	peptide exchange yield [%]
GLLKPGLNVVL [peptide GLLKPGLNVVL (SEQ ID NO 90)]	50 to 75
GLDDGPDFL [peptide GLDDGPDFL (SEQ ID NO 66)]	20 to 50
KILVSLIEV [peptide KILVSLIEV (SEQ ID NO 102)]	50 to 75
ILHDINSDGVL [peptide ILHDINSDGVL (SEQ ID NO 85)]	20 to 50
ILDDHLSRV [peptide ILDDHLSRV (SEQ ID NO 9)]	20 to 50
ALLSQQTHL [peptide ALLSQQTHL (SEQ ID NO 81)]	50 to 75
KSMDIVLTV [peptide KSMDIVLTV (SEQ ID NO 94)]	50 to 75
KLLEVDLDTV [peptide KLLEVDLDTV (SEQ ID NO 99)]	50 to 75
ALWWGVVTV [peptide ALWWGVVTV (SEQ ID NO 97)]	20 to 50
FLLGSEIKL [peptide FLLGSEIKL (SEQ ID NO 53)]	50 to 75
AMNGKSFSV [peptide AMNGKSFSV (SEQ ID NO 98)]	20 to 50
ALDPELLLL [peptide ALDPELLLL (SEQ ID NO 78)]	20 to 50
GLSEGHTFQV [peptide GLSEGHTFQV (SEQ ID NO 101)]	50 to 75
KLLKLFQGV [peptide KLLKLFQGV (SEQ ID NO 61)]	50 to 75
GMLNEAEGKAIKL [peptide GMLNEAEGKAIKL (SEQ ID NO 69)]	20 to 50
ALMLQGVDLL [peptide ALMLQGVDLL (SEQ ID NO 8)]	50 to 75
KLFSILSTV [peptide KLFSILSTV (SEQ ID NO 63)]	20 to 50
KLDIKVETV [peptide KLDIKVETV (SEQ ID NO 88)]	≥ 75
AMADKMDMSL [peptide AMADKMDMSL (SEQ ID NO 58)]	20 to 50
ALLNGEYLLAA [peptide ALLNGEYLLAA (SEQ ID NO 54)]	50 to 75
KTLGKLWRL [peptide KTLGKLWRL (SEQ ID NO 64)]	20 to 50
FLFGYPKRL [peptide FLFGYPKRL (SEQ ID NO 103)]	20 to 50
KLYSRLVYV [peptide KLYSRLVYV (SEQ ID NO 96)]	20 to 50
AILDAHIEV [peptide AILDAHIEV (SEQ ID NO 95)]	≥ 75
EMIENIQSV [peptide EMIENIQSV (SEQ ID NO 75)]	20 to 50
FLAELPGSLSL [peptide FLAELPGSLSL (SEQ ID NO 6)]	50 to 75
KVFPGKISV [peptide KVFPGKISV (SEQ ID NO 86)]	20 to 50

The next lines start with the values.

peptide exchange yield [%]	Binder
50 to 75	TVDVATPSV [peptide TVDVATPSV (SEQ ID NO 91)]
50 to 75	YLIGEKQHYL [peptide YLIGEKQHYL (SEQ ID NO 76)]
50 to 75	YLMGFLHAV [peptide YLMGFLHAV (SEQ ID NO 74)]
50 to 75	YLLDYPNNLL [peptide YLLDYPNNLL (SEQ ID NO 72)]
50 to 75	RLWTEIPTAI [peptide RLWTEIPTAI (SEQ ID NO 71)]
20 to 50	VLDEDEPRFL [peptide VLDEDEPRFL (SEQ ID NO 60)]
50 to 75	NLLEKENYL [peptide NLLEKENYL (SEQ ID NO 57)]
20 to 50	QLYEEPDTKL [peptide QLYEEPDTKL (SEQ ID NO 82)]
50 to 75	YLFDIAVSM [peptide YLFDIAVSM (SEQ ID NO 73)]
50 to 75	MISELEVRL [peptide MISELEVRL (SEQ ID NO 70)]
50 to 75	SILQFVHMV [peptide SILQFVHMV (SEQ ID NO 68)]
50 to 75	SLIEYEFRV [peptide SLIEYEFRV (SEQ ID NO 89)]
20 to 50	VLFTDEGVPKFL [peptide VLFTDEGVPKFL (SEQ ID NO 56)]
20 to 50	SLAADQLLKL [peptide SLAADQLLKL (SEQ ID NO 79)]
20 to 50	YLTRHLAVL [peptide YLTRHLAVL (SEQ ID NO 7)]
50 to 75	SMVEDITGLRL [peptide SMVEDITGLRL (SEQ ID NO 84)]
20 to 50	YLAPENGYL [peptide YLAPENGYL (SEQ ID NO 62)]
50 to 75	SLDDFLATA [peptide SLDDFLATA (SEQ ID NO 100)]
≥ 75	SLQELRLLL [peptide SLQELRLLL (SEQ ID NO 93)]
50 to 75	WIDDTSAFV [peptide WIDDTSAFV (SEQ ID NO 92)]
50 to 75	LTIEDGIFEV [peptide LTIEDGIFEV (SEQ ID NO 83)]
50 to 75	SLNDLEKDVMLL [peptide SLNDLEKDVMLL (SEQ ID NO 67)]
50 to 75	LLTDNVVKL [peptide LLTDNVVKL (SEQ ID NO 59)]
20 to 50	SLLKRDFGA [peptide SLLKRDFGA (SEQ ID NO 77)]
50 to 75	LLFDAPDLRL [peptide LLFDAPDLRL (SEQ ID NO 87)]
20 to 50	QVDEVVDIMRV [peptide QVDEVVDIMRV (SEQ ID NO 80)]
